This note sets out measurements from the RNAGym collection of RNA variant scans (doi:10.1093/molbev/msab373).

The labels stand for the following.
B1: Azoarcus group I ribozyme (parent)
chain: GUGCCUUGCGCCGGGAAACCACGCAAGGGAUGGUGUCAAAUUCGGCGAAACCUAAGCGCCCGCCCGGGCGUAUGGCAACGCCGAGCCAAGCUUCGGCGCCUGCGCCGAUGAAGGUGUAGAGACUAGACGGCACCCACCUAAGGCAAACGCUAUGGUGAAGGCAUAGUCCAGGGAGUGGCGAAAGUCACACAAACCGG

Variants of B1 are the subject of the data set. As to the kind of experiment: reverse-splicing fitness (ratio to wild type); higher = more active; in vitro selection; Mg2+ level not given. An outline of the steps:
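An in vitro group I ribozyme library with randomized positions was T7-transcribed and gel-purified. In triplicate, 10 pmol RNA in EPPS pH 7.5 was reacted with 50 pmoles of a 30-nt RNA substrate for 1 h at 37 °C across several added MgCl2 levels (1–48 mM), then stopped with EDTA. Products were reverse transcribed from a substrate-complementary primer, PCR-amplified and sequenced (HiSeq 4000). Fitness is a variant's read proportion after selection over that before, normalised to wild type.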
For the variant GUGCCUUGCGCCGGGAAACCACGCAAGGGAUGGUGUCAAAUUCGGCGAAACCUAAGCGCCCGCCCGGGCGUAUGGCAACGCUGAGCCAAGCUUCGGCGCCUGCGCCGAUGGAGGUGUAGGGACUAGACGGCACCCACCUAAGGCAAACGAUAUGGUGAAGGCAUAGUCCAGGGAGCGGCGAAAGUCACACAAACCGG, the reverse-splicing fitness was determined as 0.016.
As for GUGCCUUGCGCCGGGAAACCACGCAAGGGAUGGUGUCAAAUUCGGCGAAACCUAAGCGCCCGCCCGGGCGUAUGGCAACGCAGAGCCAAGCUUCGGCGCCUGCGCCGAUGUAGGUGUAGUGACUAGACGGCACCCACCUAAGGCCAACGCUAUGGUGAAGGCAUAGUCAAGGGAGGGGCGAAAGUCACACAAACCGG, the figure is 0.00209; as for GUGCCUUGCGCCGGGAAACCACGCAAGGGAUGGUGUCAAAUUCGGCGAAACCUAAGCGCCCGCCCGGGCGUAUGGCAACGCAGAGCCAAGCUUCGGCGCCUGCGCCGAUGAAGGUGUAGGGACUAGACGGCACCCACCUAAGGCCAACGCUAUGGUGAAGGCAUAGUCGAGGGAGCGGCGAAAGUCACACAAACCGG, 0.0162.
Under GUGCCUUGCGCCGGGAAACCACGCAAGGGAUGGUGUCAAAUUCGGCGAAACCUAAGCGCCCGCCCGGGCGUAUGGCAACGCAGAGCCAAGCUUCGGCGCCUGCGCCGAUGCAGGUGUAGCGACUAGACGGCACCCACCUAAGGCGAACGCUAUGGUGAAGGCAUAGUCUAGGGAGAGGCGAAAGUCACACAAACCGG stands 0.0165; under GUGCCUUGCGCCGGGAAACCACGCAAGGGAUGGUGUCAAAUUCGGCGAAACCUAAGCGCCCGCCCGGGCGUAUGGCAACGCUGAGCCAAGCUUCGGCGCCUGCGCCGAUGAAGGUGUAGGGACUAGACGGCACCCACCUAAGGCCAACGGUAUGGUGAAGGCAUAGUCAAGGGAGAGGCGAAAGUCACACAAACCGG, 0.00717; under GUGCCUUGCGCCGGGAAACCACGCAAGGGAUGGUGUCAAAUUCGGCGAAACCUAAGCGCCCGCCCGGGCGUAUGGCAACGCGGAGCCAAGCUUCGGCGCCUGCGCCGAUGCAGGUGUAGCGACUAGACGGCACCCACCUAAGGCUAACGAUAUGGUGAAGGCAUAGUCGAGGGAGUGGCGAAAGUCACACAAACCGG, 0.0083.
Turning to GUGCCUUGCGCCGGGAAACCACGCAAGGGAUGGUGUCAAAUUCGGCGAAACCUAAGCGCCCGCCCGGGCGUAUGGCAACGCUGAGCCAAGCUUCGGCGCCUGCGCCGAUGGAGGUGUAGUGACUAGACGGCACCCACCUAAGGCGAACGCUAUGGUGAAGGCAUAGUCAAGGGAGAGGCGAAAGUCACACAAACCGG, the reverse-splicing fitness was 0.00258.
For GUGCCUUGCGCCGGGAAACCACGCAAGGGAUGGUGUCAAAUUCGGCGAAACCUAAGCGCCCGCCCGGGCGUAUGGCAACGCCGAGCCAAGCUUCGGCGCCUGCGCCGAUGGAGGUGUAGAGACUAGACGGCACCCACCUAAGGCCAACGAUAUGGUGAAGGCAUAGUCCAGGGAGUGGCGAAAGUCACACAAACCGG, the reverse-splicing fitness was found to be 0.229.
With GUGCCUUGCGCCGGGAAACCACGCAAGGGAUGGUGUCAAAUUCGGCGAAACCUAAGCGCCCGCCCGGGCGUAUGGCAACGCUGAGCCAAGCUUCGGCGCCUGCGCCGAUGUAGGUGUAGUGACUAGACGGCACCCACCUAAGGCUAACGGUAUGGUGAAGGCAUAGUCCAGGGAGUGGCGAAAGUCACACAAACCGG, the reverse-splicing fitness was 0.00727.
Regarding GUGCCUUGCGCCGGGAAACCACGCAAGGGAUGGUGUCAAAUUCGGCGAAACCUAAGCGCCCGCCCGGGCGUAUGGCAACGCAGAGCCAAGCUUCGGCGCCUGCGCCGAUGAAGGUGUAGCGACUAGACGGCACCCACCUAAGGCUAACGAUAUGGUGAAGGCAUAGUCGAGGGAGCGGCGAAAGUCACACAAACCGG, the reverse-splicing fitness came out at 0.0221.
In the case of GUGCCUUGCGCCGGGAAACCACGCAAGGGAUGGUGUCAAAUUCGGCGAAACCUAAGCGCCCGCCCGGGCGUAUGGCAACGCCGAGCCAAGCUUCGGCGCCUGCGCCGAUGUAGGUGUAGGGACUAGACGGCACCCACCUAAGGCCAACGUUAUGGUGAAGGCAUAGUCGAGGGAGUGGCGAAAGUCACACAAACCGG, the reverse-splicing fitness worked out at 0.0495.
As for GUGCCUUGCGCCGGGAAACCACGCAAGGGAUGGUGUCAAAUUCGGCGAAACCUAAGCGCCCGCCCGGGCGUAUGGCAACGCGGAGCCAAGCUUCGGCGCCUGCGCCGAUGGAGGUGUAGUGACUAGACGGCACCCACCUAAGGCAAACGAUAUGGUGAAGGCAUAGUCUAGGGAGUGGCGAAAGUCACACAAACCGG, the figure is 0.00399; as for GUGCCUUGCGCCGGGAAACCACGCAAGGGAUGGUGUCAAAUUCGGCGAAACCUAAGCGCCCGCCCGGGCGUAUGGCAACGCAGAGCCAAGCUUCGGCGCCUGCGCCGAUGGAGGUGUAGUGACUAGACGGCACCCACCUAAGGCGAACGAUAUGGUGAAGGCAUAGUCGAGGGAGCGGCGAAAGUCACACAAACCGG, 0.00705.
With GUGCCUUGCGCCGGGAAACCACGCAAGGGAUGGUGUCAAAUUCGGCGAAACCUAAGCGCCCGCCCGGGCGUAUGGCAACGCAGAGCCAAGCUUCGGCGCCUGCGCCGAUGUAGGUGUAGCGACUAGACGGCACCCACCUAAGGCCAACGGUAUGGUGAAGGCAUAGUCCAGGGAGCGGCGAAAGUCACACAAACCGG, the reverse-splicing fitness came to 0.00974.
Take GUGCCUUGCGCCGGGAAACCACGCAAGGGAUGGUGUCAAAUUCGGCGAAACCUAAGCGCCCGCCCGGGCGUAUGGCAACGCGGAGCCAAGCUUCGGCGCCUGCGCCGAUGUAGGUGUAGAGACUAGACGGCACCCACCUAAGGCGAACGGUAUGGUGAAGGCAUAGUCAAGGGAGUGGCGAAAGUCACACAAACCGG: the reverse-splicing fitness was determined as 0.00977.
